Legend:
[1] = target: PDGF-BB (platelet-derived growth factor B homodimer) (UniProt P01127 P01127:82-190); test: saturating protein; settings: chain copies: 2 stated, three-helix junction
[2] = target: T1, alpha-thrombin (Homo sapiens, UniProt P00734;P00734 P00734:328-363,P00734:364-622); test: 3MI fluorescence at saturating protein
[3] = target: T1, alpha-thrombin; test: 6MAP fluorescence at saturating protein
[4] = target: T1, alpha-thrombin; test: 3MI signal, 350 nm excitation; AlexaFluor 430 FRET signal up 2.9-fold
[5] = target: T1, alpha-thrombin; test: 3MI signal of streptavidin-aptamer complex; AlexaFluor 430 up 1.9-fold

PDGF-BB (platelet-derived growth factor B homodimer), sequence (P01127 82-190, one chain of several): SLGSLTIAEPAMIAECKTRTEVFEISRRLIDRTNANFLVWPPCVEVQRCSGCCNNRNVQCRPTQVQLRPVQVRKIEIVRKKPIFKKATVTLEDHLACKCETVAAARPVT

**Q.** For CACAGGCTACGGCACGTAGAGCATCACCATGATCCTGTG (ssDNA, n at position 22 is 6MAP replacing C [22 (6MAP replacing C)]) [PDGF-B aptamer 6MAP-22], which binding signal ([1]; label: 6MAP) is on record?
**A.** The binding signal was 6.7 fold fluorescence increase.

B1: PDGF-B aptamer 3MI-22 (ssDNA)
DNA: CACAGGCTACGGCACGTAGAGCATCACCATGATCCTGTG
modifications: n at position 22 is 3-methylisoxanthopterin replacing C [22 (3-methylisoxanthopterin replacing C)]
**Q.** With B1 as the binder, how does the binding signal ([1]; label: 3MI) read?
**A.** The binding signal was 2.5 fold fluorescence increase.

B2: thrombin aptamer 3MI-7 (ssDNA)
DNA: GGTTGGTGTGGTTGG
modifications: n at position 7 is 3-methylisoxanthopterin replacing T [7 (3-methylisoxanthopterin replacing T)]
**Q.** With B2 as the binder, how does the binding signal [2] read?
**A.** Its binding signal is 9.7 fold fluorescence increase.

B3: thrombin aptamer 6MAP-7 (ssDNA)
DNA: GGTTGGTGTGGTTGG
modifications: n at position 7 is 4-amino-6-methyl-pteridone (6MAP) replacing T [7 (6MAP replacing T)]
**Q.** How did the binding signal [3] turn out when B3 was run?
**A.** Its binding signal is 32.9 fold fluorescence increase.

B4: thrombin aptamer 3MI-7 AlexaFluor 430 (ssDNA)
DNA: GGTTGGTGTGGTTGG
modifications: n at position 7 is 3-methylisoxanthopterin; 5' 21-atom amino linker [7 (3-methylisoxanthopterin replacing T); 5' 21-atom amino linker with AlexaFluor 430 left out]
**Q.** B4 was tested. Which binding signal [4] did it give?
**A.** The binding signal was ~7.5 fold fluorescence increase.

B5: thrombin aptamer 3MI-7 biotin (ssDNA)
DNA: GGTTGGTGTGGTTGG
modifications: n at position 7 is 3-methylisoxanthopterin; 5' 40-atom linker [7 (3-methylisoxanthopterin replacing T); 5' 40-atom linker with biotin left out]
**Q.** For B5, which binding signal [5] is on record?
**A.** The binding signal was ~7.1 fold fluorescence increase.

Reference: patent publication US20090054250, “Methods to create fluorescent biosensors using aptamers with fluorescent base analogs” (published 2009)
